Article PMC11532998
Several values for one entry are separate records, joined by “and”; a condition that tells them apart may be missing. Equal entries are not always repeated.

Assays:
[1] = molecular target: NfsB with C-terminal encapsulin localization sequence (cargo of Enc{NfsB}) (E. coli | M. smegmatis)
[2] = molecular target: T1, encapsulin from Mycobacterium smegmatis (UniProt ID: I7G8Y9), C-terminal Strep-tag (Mycobacterium smegmatis mc2 155); assay: SDS-PAGE gel densitometry of the co-purified complex; Enc{tdNfsB} at 500 ug/mL on a 15% gel, Coomassie; calibration curves of Enc and tdNfsB; molar ratio of tdNfsB (52.3 kDa) to Enc shell (1804.2 kDa); repeated twice
[3] = molecular target: T1, encapsulin from Mycobacterium smegmatis; assay: cryo-EM structure; same data set of purified Enc{tdNfsB}; the shell was subtracted from the particles, 2-D classification and low-resolution 3-D reconstruction of the interior; cargo and shell co-expressed in E. coli

| conversion of caged-hydroxy-CBT after 60 min by Enc{NfsB} (coupled luciferase assay), against 50% for free NfsB and tdNfsB and a comparable conversion for Enc{tdNfsB} [1] [%] | stoichiometry N (tdNfsB units per shell) [2] | stoichiometry N (tdNfsB per capsid) [3] | Substance |
| --- | --- | --- | --- |
| 10 | – | – | NfsB with C-terminal encapsulin localization sequence (cargo of Enc{NfsB}) (enzyme) |
| – | 10 and 13 | 6 | tandem NfsB with C-terminal encapsulin localization sequence (cargo of Enc{tdNfsB}) (enzyme) |
